According to FireProtDB (doi:10.1016/j.jmb.2005.05.003):

Conditions: Equus caballus, Thermal, CD, Potassium citrate 10 mM, KCl 0.1 mM, reversible: yes, whole UniProt chain shown

B1: Beta-lactoglobulin-1 wild type, P02758 (protein)
chain: MKCLLLALGLALMCGIQATNIPQTMQDLDLQEVAGKWHSVAMAASDISLLDSESAPLRVYIEKLRPTPEDNLEIILREGENKGCAEKKIFAEKTESPAEFKINYLDEDTVFALDTDYKNYLFLCMKNAATPGQSLVCQYLARTQMVDEEIMEKFRRALQPLPGRVQIVPDLTRMAERCRI
- Tm (pH 3.65): 47.5 °C
- unfolding enthalpy (van 't Hoff) (pH 3.65): 37.8 kcal/mol
- Tm (pH 3.71): 49.4 °C
- unfolding enthalpy (van 't Hoff) (pH 3.71): 44.2 kcal/mol
- Tm (pH 4): 58.3 °C
- unfolding enthalpy (van 't Hoff) (pH 4): 51.5 kcal/mol
- Tm (pH 4.2): 59.7 °C
- unfolding enthalpy (van 't Hoff) (pH 4.2): 57.1 kcal/mol
- Tm (pH 4.22): 61.4 °C
- unfolding enthalpy (van 't Hoff) (pH 4.22): 57.8 kcal/mol
- Tm (pH 4.23): 57.3 °C
- unfolding enthalpy (van 't Hoff) (pH 4.23): 52.7 kcal/mol
